Assay results reported in publication PMC9170038.

Biological target: MS2 coat protein, dlFG mutant (Escherichia phage MS2, UniProt P03612, del68-81insG)
Assay: 4 mM Mg2+; no ligand; RNA-MaP array; 100 mM Tris-HCl pH 7.5, 80 mM KCl, 4 mM MgCl2, 0.1 mg/mL BSA, 1 mM DTT, 0.01 mg/mL yeast tRNA, 0.01% Tween-20; protein 1.5 nM to 3 uM; 37 C (Table S3)
Conditions: chain copies: 2; label: tethered by stalled RNA polymerase

B1: Eterna 7720377 (Same State - Arginine B) (ssRNA)
RNA: GCCUAGCAGGGAAGGAGCGGCAUAAGCAUAGAUAAUAUGCAGUUAGUGAUGUUAAUACUAUGCCAGGUAGGUCGCCCUGCUAGGC
With B1 the Kd was over 3000 nM.

B2: Eterna 7690487 (Same State - Theophylline B) (ssRNA)
RNA: UGUCAUUGGUCUGAUACCAGUUAGACCGAUAGGUCAAAACUGGAGUGAUGUUCCCAAAAUAACCCUUGGCAGCAGACCGAUGACU
With B2 the Kd was over 3000 nM.

B3: Eterna 7691153 (Same State - Arginine B) (ssRNA)
RNA: AAUGCAUAGUGAAGGAGCGCGAUUUGCAGUGAUGUUGCAAAUUUAAACAAUCUUAUCUUUUCGCAGGUAGGUCGCACUAUGCAUA
B3 was tested, and the Kd was over 3000 nM.

B4: Eterna 6430991 (Inverted Small Loop Exclusion NG 1) (ssRNA)
RNA: CCUCGCUGUUAGAAGGCACCUUCGGCUUUGGCUUUUGGAGUUGGGCGAUGGUGAGGAUAUAACAUGAGGAUCACCCAUGUUCAA
B4 gave a Kd of 9.79 nM.

B5: Eterna 7687680 (Same State - Theophylline A) (ssRNA)
RNA: AUUGAUAUAUAUAUUUGAUUUUUAUGUGAUACCAGACAAGGCAUAGUCCCUUGGCAGCACUUUAUAUUUACGAGUGAUGUUCGUA
In the case of B5, the Kd is reported as over 3000 nM.

B6: Eterna 6079023 (Exclusion 4) (ssRNA)
RNA: UUCACGUCAGGAUAUCCAUAUUUCCGAAAUAACGGUACUUUGGAGAAGGGACAUGAGGAUCACCCAUGUCCUCG
B6 showed a Kd of 17.9 nM.

B7: Eterna 6424838 (Exclusion NG 2) (ssRNA)
RNA: GCCGGUUCCCUAGGAUAUGUACAUGAGGAUCACCCAUGUGCCUCUAGAGCCGGAACAGGGCAUGUACAGAAGGAGGGUCGACCC
Binder B7 has a Kd of 7.13 nM.

B8: Eterna 7729660 (Same State - Arginine B) (ssRNA)
RNA: ACGAAGGAUGGAAGGAGCGCUCGUCAGUCCUGCGAGUGAUGUUCGUGGGUAAAUAGUCGCGAGCAGGUAGGUCGCCAUCUUGAGC
For B8, the Kd was over 3000 nM.

B9: Eterna 7710839 (Same State - Theophylline A) (ssRNA)
RNA: UAAUAAAUAAAUCCAAGGUGAAGGUCAGAUACCAGCCAGAUAACUGGCCCUUGGCAGCUGAAUAAGCUUGAGGAUCACCCAAGUA
For B9, the Kd was 36.1 nM.

B10: Eterna 7729929 (Exclusion - Tryptophan B) (ssRNA)
RNA: GGAUAGGACACGGCCGCCACUAGCUAGGAUACUAGCAACAUUUCCUCAUCUGAGGAUCACCCAGGUAGGACCGGGUGUCCUAUCG
B10 showed a Kd of 563 nM.

B11: Eterna 7765403 (Exclusion - FMN A) (ssRNA)
RNA: AGUGAUGUAUGGCGGUUUGUCACUUAAAAUCAGGAUAUAUAAACAAAUAGAAGGGAUGGCGGAGUGAUGUUCCGCCGGCCGCCAU
With B11 the Kd was over 3000 nM.

B12: Eterna 6430949 (Inverted Small Loop Exclusion NG 1) (ssRNA)
RNA: GGGACCUACGAGAAGGGCUACAUGAGGAUCACCCAUGUAAAUCUUCGGGUGGCAGGAUAUCGGCGGCUACAGGAGGGCCAGGUC
In the case of B12, the Kd is reported as 8.57 nM.

B13: Eterna 7730362 (Exclusion - Arginine B) (ssRNA)
RNA: GGACUAACCAGAAGGAGCGGCGCGCAGAAACUGCUAAUUCCUCCGCACGAGGAUCACCCGUGUCAGGUAGGUCGCUGGUUAGUCG
In the case of B13, the Kd is reported as 10 nM.

B14: Eterna 6456627 (Same State NG 3) (ssRNA)
RNA: GCGCCUCAGAACAUGAGGAUCACCCAUGUGCUGCGGGCGCCGUAGGAUAUGAUGGUACGCUACCAUCAGAAGGAUGAUGGUACC
Binder B14 has a Kd of 4.99 nM.

B15: Eterna 7753129 (Same State - Arginine B) (ssRNA)
RNA: GGGUUGAACUGAAGGAGCGAGAAAUAGAAAGUAAGAAGAUAAGCUAGUGAUGUUAGAAAUUCUCAGGUAGGUCGCAGUAAGAAUU
B15 gave a Kd of over 3000 nM.

B16: Eterna 7652494 (Same State - Tryptophan B) (ssRNA)
RNA: AGUAGACACGCGGCCGCCACUUGAGGAUCACCCAGGUGGUGUGUACUUGAAAACAAGUGCACAUCAAGGACCGGGCGUGUCUACA
With B16 the Kd was 12.7 nM.

B17: Eterna 7708077 (Same State - FMN A) (ssRNA)
RNA: UUUUACGAGUGAUGUUCGUAAUGUAAUAGUUAGGAUAUCGUUUUUUCGAGAAGGAACUUCGAAGUGAUACGAAAGUAUCGCUUCG
Work on B17 yielded a Kd of over 3000 nM.

B18: Eterna 7627109 (Same State - Theophylline A) (ssRNA)
RNA: CUCCGAGGCUAUACUAUCCGCCUCUGUGAUACCAGAAUACCUAUAUUCCCUUGGCAGCAUCACAUGAGGAUCACCCAUGUGCCAU
In the case of B18, the Kd is reported as 13.2 nM.

B19: Eterna 7712973 (Exclusion - Theophylline A) (ssRNA)
RNA: AGACCUCAGUGAUGUUGAGGUAACACUGAUACCAGCGACUUAAUUCGCCCUUGGCAGCAGUCCACCGAGGUAUCUGAUUAGGUCA
For B19, the Kd was over 3000 nM.

B20: Eterna 7637577 (Same State - Tryptophan B) (ssRNA)
RNA: GUAGCUAUCGCGGCCGCCACUAAACCGGAAACGGAACAGGAGGAUCACCCUUGUGGCGAAAGCCAUAGGACCGGGCGAUAGCUAC
In the case of B20, the Kd is reported as 483 nM.

B21: Eterna 7710140 (Exclusion - Tryptophan A) (ssRNA)
RNA: AGCUCGCAAUCCUCAGCGUCAAAGACGCGUCGAGGACCGGUACGGCCGCCACUCGACAAGAGGAUCACCCUUGUCUAAGCGAGCA
Work on B21 yielded a Kd of 330 nM.

B22: Eterna 7716236 (Same State - Tryptophan B) (ssRNA)
RNA: GCGCGGCAGGCGGCCGCCACUCUGACGAGCCACAGUGAUGUUGUGGUCGGAGAAACGUCUUCAUAGAGGACCGGGUUUGUUGUUC
Work on B22 yielded a Kd of over 3000 nM.

B23: Eterna 6084857 (Exclusion 6) (ssRNA)
RNA: UCAAAUACUGAGGAUAUAACGACUGAAUCCGCGUUAGAAGGUAGUACAUGAGGAUCACCCAUGUCAACCAGAGG
With B23 the Kd was 17.2 nM.

B24: Eterna 7726887 (Same State - Arginine A) (ssRNA)
RNA: AAUACCUGAGUGAUGUUCAGGGAAUCAGAAGGAGCGUCAAUUAUGACAGGUAGGUCGCUGAAGACAUGUGUGUAUACACAUGUCC
Work on B24 yielded a Kd of over 3000 nM.

B25: Eterna 7690543 (Exclusion - Theophylline B) (ssRNA)
RNA: AUUUAAUUAACUGAUACCAGACUUUAUGUAUUUAUUAAAACUAGUGAUGUUAGUUUAUCUGUCCCUUGGCAGCAGUUUCUACUUA
B25 gave a Kd of over 3000 nM.

B26: Eterna 7682639 (Same State - Theophylline A) (ssRNA)
RNA: GAAGGUCAAAGACCUUCGUGCACAUCUGAUACCAGUCGCGAAAGCGACCCUUGGCAGCAGGGCAGUGAUGUUGCCAGUGCACAAA
For B26, the Kd was over 3000 nM.

B27: Eterna 7690461 (Exclusion - Theophylline A) (ssRNA)
RNA: UAAUUUAUGUCUUUAAUAUAAUAAUCAGAUACCAGUGAUUUAUGACACCCUUGGCAGCUGUAUAGAGUGAUGUUCUUAUACAUAA
B27 was tested, and the Kd was over 3000 nM.

B28: Eterna 11587 (Sensor for hsa-mir-208a) (ssRNA)
RNA: AUUUAACAAGCUUUUUGCUCGUCUUAUAAACAUGAGGAUCACCCAUGUAAUAGCGUGAGAGUAAAUAAUUUAAUAAU
In the case of B28, the Kd is reported as 11.3 nM.

B29: Eterna 6457182 (Inverted Small Loop Same State NG 1) (ssRNA)
RNA: CGUCUAUGCAAGAAGGCAUGAAACAUGAGGAUCACCCAUGUCAAAGACAUGAGGAUAUUGCAUAGACGAAAAGUGCGAAAGCAC
B29 showed a Kd of 4.44 nM.

B30: Eterna 7692300 (Exclusion - FMN B) (ssRNA)
RNA: UGGGCUGCCUGAGGAUAUAGAGACGAGUGAUGUUCGUGGAUAAGAGCCAGUGAUGUUGGGUUAUUUCUAGAAGGCGGGCGAACUU
Binder B30 has a Kd of over 3000 nM.
